Results as given in article PMC7618261 (Journal of molecular biology, 2019).
Blank lines part the entries; values can stand above or below the molecule they belong to.

Experiments:
[1] = molecular target: Alexa Fluor 488-labeled OmpT (E. coli) (UniProt P09169); experiment: MST
SurA WT = molecular target: T1, SurA WT (E. coli, UniProt P0ABZ6 21-428); experiment: MST
T1 sequence (looked up): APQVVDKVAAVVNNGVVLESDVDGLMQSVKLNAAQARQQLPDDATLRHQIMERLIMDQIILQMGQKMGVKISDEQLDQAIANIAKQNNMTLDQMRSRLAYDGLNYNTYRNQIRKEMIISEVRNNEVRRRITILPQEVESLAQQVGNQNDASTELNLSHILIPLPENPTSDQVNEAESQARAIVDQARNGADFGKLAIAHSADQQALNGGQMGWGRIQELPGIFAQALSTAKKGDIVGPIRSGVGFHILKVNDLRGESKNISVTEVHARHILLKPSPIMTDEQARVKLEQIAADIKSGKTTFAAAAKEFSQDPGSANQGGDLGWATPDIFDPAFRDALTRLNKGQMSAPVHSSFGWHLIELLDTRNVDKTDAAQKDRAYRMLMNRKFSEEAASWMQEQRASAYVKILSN

- Kd [1]: 9.3 µM
Molecule: SurA WT (from UniProt P0ABZ6 21-428) (natural protein)

- Kd (SurA WT): 1.8 ± 0.1 µM
B1: Alexa Fluor 488-labeled tOmpA (domain or fragment)
chain: APKDNTWYTGAKLGWSQYHDTGFINNNGPTHENQLGAGAFGGYQVNPYVGFEMGYDWLGRMPYKGSVENGAYKAQGVQLTAKLGYPITDDLDIYTRLGGMVWRADTKSNVYGKNHDTGVSPVFAGGVEYAITPEIATRLEYQWTNNIGDAHTIGTRPDNGMLSLGVSYRFG
modifications: Alexa Fluor 488 C5 maleimide on the N-terminal Cys
